The target of assay [1] is T1, biotinylated recombinant TPBG protein (Homo sapiens (Human), UniProt Q13641 32-355, Biotinylated; the number and positions of the biotin labels are not stated and the letters do not carry them.).
T1 sequence: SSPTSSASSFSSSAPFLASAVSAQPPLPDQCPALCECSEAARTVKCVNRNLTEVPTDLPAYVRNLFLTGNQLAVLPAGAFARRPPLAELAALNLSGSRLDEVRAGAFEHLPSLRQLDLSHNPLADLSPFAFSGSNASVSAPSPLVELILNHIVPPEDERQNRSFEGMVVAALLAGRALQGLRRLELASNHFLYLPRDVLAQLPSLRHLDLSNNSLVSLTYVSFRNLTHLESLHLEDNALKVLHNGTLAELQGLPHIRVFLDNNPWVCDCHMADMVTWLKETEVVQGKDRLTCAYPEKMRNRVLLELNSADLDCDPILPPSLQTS
Kind of assay: competitive ELISA; row antibody 5 ug/mL; competitor: coated 39A11G5F2. Here is the method: (§1) The purified antibodies to be tested were diluted to 1 μg/mL using PBS, and coated with high-adsorption of 96-well microplates at […]. After overnight coating at 4[…], 250 μL of blocking buffer (PBS containing 0.01% (v/v) Tween20 and 1% (w/w) BSA) was added to block coating at room temperature for 1 h, and 0.05 μg/mL of biotinylated recombinant TPBG protein was added to each well. Meanwhile, 5 μg/mL final concentration of competitive antibodies, i.e. the purified antibodies obtained from Embodiment 2 with the clone number of 12B12C7C3, 5G4H10G5, 37H9C5G2, 39A11G5F2, 52C9E9F6, 28D4E6A9, 36A10D8B12, 99E12C7H1, 103E2E9C2 and 106D5G3D10 were added and incubated at 25-37° C. for 1-2 h. The plates were washed three times with plate-washing buffer (PBS containing 0.01% (v/v) Tween20) and HRP (horseradish peroxidase)-labeled streptavidin (purchased from Sigma) was added. After incubating at 37° C. for 0.5 h, the plates were washed three times with plate-washing buffer (PBS containing 0.01% (v/v) Tween20), and 100 μL of TMB substrate was added to each well and the plates were further incubated at room temperature for 30 min prior to adding 100 μL of stop buffer (1.0N HCl) to each well. A₄₅₀ₙₘ values were read using an ELISA microplate reader (SpectraMax 384plus purchased from Molecular Device) and results were shown in FIG. 6. The higher the values of the competition rate, the closer the antigen surface of the two antibodies are.

The target in assay [2] is T1, biotinylated recombinant TPBG protein. Briefly: competitive ELISA; row antibody 5 ug/mL; competitor: coated 37H9C5G2. Here is the method:
as §1

Assay [3] concerns the target T2, human TPBG-hFc (human, UniProt Q13641 32-355).
T2 construct: also called immunogen A; hFc tagged TPBG protein; not shown: The human IgG Fc fragment of the pCpC vector (Invitrogen V044-50) and any linker to it
T2 sequence: T1 sequence
Briefly: ELISA, coated human TPBG-hFc 1.0 ug/mL; antibody 20 nM. As for the experimental part:
The purified immunogen A (as for its method of preparation please refer to step 1 in Example 1) diluting with PBS to a final concentration of 1.0 μg/mL was aliquoted into a 96-well ELISA plate at 100 μL per well, and sealed with a parafilm and incubated at 4° C. overnight. The plate was washed twice with plate washing buffer (PBS containing 0.01% (v/v) Tween 20), and blocked with blocking buffer (PBS containing 0.01% (v/v) Tween 20 and 1% (w/w) BSA) at room temperature for 2 h. The blocking buffer was discarded, and 100 μL per well of the purified antibody obtained from Embodiment 2 was added. After incubating at 37° C. for 2 h, the plate was washed for three times with plate washing buffer (PBS containing 0.01% (v/v) Tween 20). HRP (horseradish peroxidase)-labeled secondary antibody (purchased from Sigma) was added and incubated at 37° C. for 2 h, and the plate was washed for three times using plate washing buffer (PBS containing 0.01% (v/v) Tween 20). 100 μL of TMB substrate was aliquoted into each well, incubated at room temperature for 30 min, and 100 μL of stop buffer (1.0N HCl) per well was subsequently added. A₄₅₀ₙₘ values were read using the ELISA plate reader (SpectraMax 384plus purchased from Molecular Device), and the results were shown in FIG. 6 and table 6. […] In Table 6 the IgG control herein is a mice IgG control, the data in the Table are OD₄₅₀ₘₙ values, and Blank means the OD₄₅₀ₘₙ value when there is only PBS buffer in the plate.

Where a chain is given by its changes, count along the chain named.

B1: 106D5G3D10 (antibody, V domains shown)
VH: EVQLVESGGGLVKPGGSLKLSCAASGFTFSDYGMHWVRQAPEKGLEWVGYISSGTYVVYYADTVKGRFTISRDNAKNTLFLQMTSLRSEDTAIYYCSTYGSNPFDYWGQGTTLTVSS
VL: QLVLTQSPAIMSASPGEKVTITCSATSSVSSMHWFQQKPVTSPKLWIYSTSNLASGVPTRFSGSGSGTSYSLTISRMEAEDAATYYCQQRSGYPPIFTFGSGTKLEIK
notes: Mouse hybridoma antibody purified from culture supernatant; also called TPBG antibody; lead antibody
On to B1, for which the competition rate is 1% in assay [1] and 3% in assay [2]. In assay [3], this molecule had an OD450nm of 2.82 OD450nm.

B2: 36A10D8B12 (antibody, V domains shown)
VH: DVQLQESGPGMVKPSQSLSLTCTVTGYSITSGYDWHWIRHFPGNKLEWMGYISYSGNTNYNPSLKSRISITHNTSKNHFFLRLNSVTTEDTATYYCARGYGNWDAMDYWGQGTSVTVSS
VL: DIVMTQSQKFMSTSVGDRVSVTCKASQIVDTNVAWYQQKPGQSPKALISSASYRYSGVPDRFTGSGSGTDFTLTISNVQSEDLAEYFCQQYNSYPLTFGAGTKLELT
notes: as for B1
With B2, the competition rate in assay [1] worked out at 4%; in assay [2] it was 96%. For the same molecule, the OD450nm in assay [3] was found to be 3.07 OD450nm.

B3: 39A11G5F2 (antibody, V domains shown)
VH: QVQLQQSGAELMKPGASMRLSCKATGYTFTGYWLEWIKRRPGHGLEWIGEILPGRGSTNYNEKFKGKATFTAETSSNTAYMQLTSLTTEDSAIYYCARGGRDFDNWGQGTTLTVSS
VL: DIQMTQSTSSLSASLGDRVTISCSASQGINNHLNWYQQKPDGTVKLLIYYTSSLHSGVPSRFSGSGSGTDYSLTISNLEPEDIAIYYCQQFSKLPYTFGGGTKVEMK
notes: as for B1
Consider B3, for which the competition rate in assay [1] turned out to be 96%; in assay [2], 0%. In assay [3], the OD450nm stood at 2.5 OD450nm.

B4: 52C9E9F6 (antibody, V domains shown)
VH: QVQLQQSGAELMKPGASVKLSCKATGYTFTGYWIEWIKQRPGHGLEWIGEILPGRGSTDYNEKFKGKATFTADTSSNTAYMQLSSLTTEDSAIYYCTRGRLDFTYWGQGTLVTVSA
VL: B3 VL with S7T, N30R, H32Y, I85T, F91Y, L94V, Y96W, V104L, M106I
notes: as for B1
Take B4: the competition rate was 97% in assay [1] and 4% in assay [2]. The OD450nm in assay [3] was 2.69 OD450nm.

B5: 103E2E9C2 (antibody, V domains shown)
VH: EVQLQQSGPVLVKPGASVKMSCEASGYSFIDYYMSWVKQSRGRSLEWIGVFNPYSGEIIYNQKFKGKATLTVDKSSSTAYMELSSLTSEDSGVYSCARLRISYYAIDYWGQGTSVAVSS
VL: ENVLTQSPAIMSASPGEKVTMTCRATSSVSSGHFHWYQQKSGASPKVWIYSTSNLASGVPARFSGSGSGTSFSLTISSVEAEDVATYFCQQYSGYPLTFGGGTKLEIK
notes: as for B1
Take B5: the competition rate in assay [1] stood at 0%; in assay [2], 23%. The molecule also returned an OD450nm in assay [3] of 2.62 OD450nm.

B6: 28D4E6A9 (antibody, V domains shown)
VH: DVQLVESGGGLVRPGGSLKLSCAASGFTFSNYVMSWARQSPEKRLEWVAEISTGGSHTYYSDTVTGRFTISRDNAKKALYLEMSSLRSEDTAIYYCIMFYYGSSYSMDYWGQGTSVTVSS
VL: DIQMTQSTSSLSASLGDRITISCRASQDIRNYLNWYQQKPDGTVKLLIYHTSRLHSGVPSRFSGSGSGTDYSLTISNLEQEDIATYFCQQGDTLPLTFGAGTRLELK
notes: as for B1
For the molecule B6, the competition rate in assay [1] and in assay [2] was 0% throughout. The molecule also had an OD450nm in assay [3] of 2.59 OD450nm.

B7: 99E12C7H1 (antibody, V domains shown)
VH: QIQLVQSGPELKKPGETVKISCKPSGYTFTAYGLSWVKQAPGQGFQWMGWINTYSGVPTYTDDFKGRFAFSLETSAGTASLQITNLKNEDTATYFCARSSIPPFEYWGPGTTLTVSS
VL: SFVMTQSPKFLLVSVGDRVTITCKASQSVSNDVAWYQQKPGQPPRVLIYFASNRYTGVPDRFTGSGYGTDFTFTISTVQAEDLALYFCQQDYSSPWTFGGGTKLEIK
notes: as for B1
B7: the figures for the competition rate in assay [1] and in assay [2] were 1% and 5%, respectively. In assay [3], this molecule showed an OD450nm of 2.88 OD450nm.

B8: 5G4H10G5 (antibody, V domains shown)
VH: EVQLVESGGDLVQPGGSLKLFCAASGFTFSTYGLSWVRQTPDKRLELVATITNNDGSAYYPDSVKGRFTISRDKAKNTLFLQMTSLKSEDTAMYYCARETGFGSSYLFDYWGQGTLVTVSA
VL: NIVMTQTPKFLLVSAGDRVTITCKASQSVSNDVAWYQQKPGQSPKLLIYFATNRYTGVPNRFTGSGYGTEFTFTISSVQAEDLAVYFCQQDYSSPTFGGGTKLEIK
notes: as for B1
Consider B8, for which the competition rate is 10% in assay [1] and 5% in assay [2]. The OD450nm in assay [3] came out at 2.8 OD450nm.

B9: 37H9C5G2 (antibody, V domains shown)
VH: QVQLQQSDAELVRPGASVKMSCKVSGYTFTDHTIHWMKQRPEQGLEWIGYIYPRDGSGTYNEKFKGKATLTADKSSSTAYMQLNSLTSEDSAVYFCARDGSSHYWYFDVWGTGTTVTVSS
VL: DIQMTQSPASLSASVGETVTITCRASEIIYNYLAWYQQKQGKSPQLLVYNAKTLAEGVPSRFSGSYSGTQFSLNINSLQSEDFGIYYCQHHHDTPLTFGAGTKLDLK
notes: as for B1
For the molecule B9, the competition rate in assay [1] was determined as 3%; in assay [2] it was 96%. Also, in assay [3], the OD450nm was determined as 2.63 OD450nm.

B10: 12B12C7C3 (antibody, V domains shown)
VH: DVQLVESGGGLVQPGGSRKLSCAASGFTFSNFGMHWVRQAPEKGLEWVAYISSGSTSFYYADTVKGRFTISRDNPKNTLFLQMTSLRSEDTAMYYCSRTNSLLRGFFDAWGAGTTVTVSS
VL: DIVLTQSPASLAVSLGQRATISCRASQSVSSSSYTYLHWYQQKPGQPPKLLIKSASNLESGVPARFSGTGSGTDFTLNIHPVEEEDTATYYCQHSWEIPLTFGAGTKLELK
notes: as for B1
Turning to B10, the competition rate stood at 0% in assay [1] and 1% in assay [2]. Moreover, the OD450nm in assay [3] was determined as 2.83 OD450nm.
